{
  "source": "patent US20210261685A1",
  "about": "(Alector, published 2021)",
  "binders": {"B1": {"name": "MTK-24 (antibody, human IgG1, V domains shown)", "VH": "QVQLQQPGAELVKPGASVKLSCKASGYTFTSYWMHWVKQRPGQGLEWIGMIHPNINTNYNEKFKSKATLTVDISSSTAYMQLSSLTSEDSAVYYCAKRSPYSNYDWYFDVWGTGTTVTVSS", "VL": "DIQMTQSPASLSVSVGETVTITCRASENIYSNLAWYQQKQGKSPQLLVYAATNLADGVPSRFSGSGSGTQYSLKINSLQSEDFGSYYCQHFWGTPLTFGAGTKLELK"}, "B2": {"name": "MTK-30 (antibody, human IgG1, V domains shown)", "VH": "QVQLQQPGTELVRPGASVKLSCKASGYTFTSYWMHWVKQRPGQGLEWIGNLNPNNGGTYYNEKFKSKATLTVDKSSSTAYMQLSSLTSEDSAVYYCARQILLYFDYWGQGTTLTVSS", "VL": "DVLMTQTPLSLPVSLGDQASISCRSSQSIVHSNGDTYLEWYLQKPGQSPKLLIYKVSNRFSGVPDRFSGSGSGTDFTLKISRVEAEDLGVYYCFQGSHVPWTFGGGTKLEIK"}, "B3": {"name": "MTK-28 (antibody, human IgG1, V domains shown)", "VH": "QIQLVQSGPELKKPGETVKISCKASGYTFTTYGMSWVKQAPGKGLKWMGWINTYSGVPTYADDFKGRFAFSLETSASTAYLQINTLKNEDTTTYFCARFLRYYYFDYWGQGTTLTVSS", "VL": "QIVLSQSPVILSASPGEKVTMTCRASSSVTYMHWYQQQPGSSPKPWIYATSNLASGVPARFSGSGSGTSYSLTISRVETEDAATYYCHQWSGNPTFGGGTKLEIN"}, "B4": {"name": "MTK-16 (antibody, human IgG1, V domains shown)", "VH": "LIQLVQSGPELKKPGETVKISCKASGYTFTNHGMNWVKQDPGKGLKWMGWINTYTGEPTYADDFKGRFVFSMETSASAAFLQINNLKNEDTATYFCARKGVTAARYFDYWGQGTTLTVSS", "VL": "DIVMTQSPKFMSTSVGDRVSITCKASQNVRTAVAWYKKKPGQSPKALINLASNRHTGVPDRFTGSGSGTDFTLTISNVQSEDLADYFCLQHWNYPLTFGGGTKLEIK"}, "B5": {"name": "MTK-27 (antibody, human IgG1, V domains shown)", "VH": "EVQLQQSGTELVRPGASVKLSCTASGFNIKDDYMHWVQQRPEQGLEWIGWIDPENGNTEYASKFQGKATITADASSNTAYLQLSSLTSEDTAVYYCSTLFSNYFDYWGQGTTLTVSS", "VL": "B4 VL with P8Q, A32S, K37Q, K38Q, N49Y, Q79R, L96Y"}, "B6": {"name": "MTK-13 (antibody, human IgG1, V domains shown)", "VH": "DVQLQESGPGLVKPSQSLSLTCSVTGYSITSGYYWNWIRQFPGNKLEWMGNIDYDGSNKYNPSLKNRISITRDTSKNHFFLKLNSVTPEDTATYFCARDGGNYRSFAYWGQGTLVTVSA", "VL": "QIVLTQSPPIMSASPGEKVTITCSASSSVSYMYWFQQKPGTSPKLWIYSTFNLASGVPARFSGSGSGTSYSLTISRMEAEDVATYYCQQRSSYPFTFGSGTKLEIK"}, "B7": {"name": "MTK-26 (antibody, human IgG1, V domains shown)", "VH": "AVQFQESGPGLVKLSQSLSLTCSVTGYSITSGYYWDWIRQFPGNKLEWMGYISYDGSNNYNPSLKNRISITRDTSKNQFFLKLNSVTTEDTATYYCAREGGYYRSMDYWGQGTSVTVSS", "VL": "B6 VL with P9A, T22A, Y31F, Y33H, K44R, F51S, V82A"}, "B8": {"name": "MTK-10 (antibody, human IgG1, V domains shown)", "VH": "QVTLKESGPGILQPSQTLSLTCSFSGFSLTTSGMGVGWIRQPSGKGLEWLAHIWSDDDKRSNPALKSRLTISQDSSTNQVFLKIASVDTADSATYYCSHLTPVREFAYWGPGTLVTVSE", "VL": "DIQMTQTTSSLSASLGDRVTISCSASQGISNYLNWFQQKPDGTVKLLIYYTSRLHSGVPSRFSGSGSGTDFSLTISNLEPEDIATYYCQQYTKLPYTFGGGTKLEIK"}, "B9": {"name": "MTK-15 (antibody, human IgG1, V domains shown)", "VH": "QIQLVQSGPELKKPGETVKISCKASGYTFTNYGVHWVKQAPGKGLKWMGWINTYTGEPTYADDFKGRFAFSLETSASTAYLQINNLKNEDMATYFCARGNRYAYMDYWGQGTSVTVSS", "VL": "QIVLSQSPAILSASPGEKVTMTCRASSSVSYMHWYQQKSGSSPKPWIYATSNLASGVPARFSGSGSGTSYSLTISRVEAEDAATYYCQQWSSNPRTFGGGTKLEIK"}, "B10": {"name": "MTK-06 (antibody, human IgG1, V domains shown)", "VH": "QIQLVQSGPELKKPGETVKISCKASGYTFTNYGMNWVKQAPGKGLKWMGWINTNTGEPTYAEEFKGRFAFSLETSASTAYLQINNLKNEDTATYFCARYYNYWYFDVWGAGTTVTVSS", "VL": "B9 VL with S39P, N93K, R95P"}, "B11": {"name": "MTK-12 (antibody, human IgG1, V domains shown)", "VH": "QVQLQQSGPQLVRPGASVKISCKASGYSFTSHWMHWVKQRPGQGLEWIGMIDPSDGESRLNQKFKDKATLTVDKSSSTAYMQLSSPTFEDSAVYYCARGIYYYGITYAMDYWGQGTSVTVSS", "VL": "QIVLTQSPAIMSASPGEKVTMTCSASSSVSYMYWYQQKPRSSPRLLIYDTSNLASGVPVRFSGSGSGTSYSLTISRMEAEDAATYYCQQWSSYPLTFGAGTKLELK"}},
  "note": "Numbering of substitutions follows the chain as printed.",
  "data": [
    {"molecular_target": "T1, cyno MerTK extracellular domain (ECD), recombinant (cynomolgus monkey, UniProt Q12866 21-505 (human entry))", "T1 construct": "also called cynomolgus MerTK; not shown: polyHis tag or TEVS/Thrombin/murine IgG2a Fc tag", "T1 chain": "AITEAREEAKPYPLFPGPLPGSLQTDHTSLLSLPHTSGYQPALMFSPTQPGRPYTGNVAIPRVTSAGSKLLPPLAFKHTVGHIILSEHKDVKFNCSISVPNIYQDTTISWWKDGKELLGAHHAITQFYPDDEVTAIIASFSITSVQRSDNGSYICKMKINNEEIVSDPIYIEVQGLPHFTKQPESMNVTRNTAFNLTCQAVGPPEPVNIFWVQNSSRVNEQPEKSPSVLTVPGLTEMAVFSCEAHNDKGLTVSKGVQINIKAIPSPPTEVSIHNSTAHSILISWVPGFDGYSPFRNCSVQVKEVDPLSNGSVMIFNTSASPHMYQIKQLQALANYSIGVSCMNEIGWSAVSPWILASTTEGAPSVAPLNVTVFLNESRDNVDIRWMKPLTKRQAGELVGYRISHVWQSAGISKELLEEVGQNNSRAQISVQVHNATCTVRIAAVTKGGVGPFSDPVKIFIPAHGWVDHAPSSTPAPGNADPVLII", "experiment": "SPR, Carterra LSA, antibody immobilised", "method": "Binding kinetics of human anti-MerTK IgG1 LALAPS antibodies of the present disclosure to human, cyno, and murine MerTK were evaluated using a Carterra LSA instrument (Carterra, Salt Lake City, Utah). Briefly, anti-MerTK antibodies were prepared by diluting to 10 μg/ml in 10 mM Acetate, pH 4.25 (Carterra), at 300 μl/well. A HC200M sensor chip (Carterra) was activated using the single channel flow cell with a 7-minute injection of a 1:1:1 mixture of 100 mM MES pH 5.5, 100 mM sulfo-NHS, 400 mM EDC (all reconstituted in MES pH 5.5; 100 μl of each mixed in vial immediately before running assay). After switching to the multi-channel array flow cell, the antibodies were injected over the activated chip in a 96-spot array for 15 minutes. The remaining unconjugated active groups on the chip were then blocked by injecting 1M Ethanolamine pH 8.5 (Carterra) for 7 minutes using the single channel flow cell.\nAfter priming with running buffer (HBS-TE, Carterra) with 0.5 mg/ml BSA (Sigma), the immobilized anti-MerTK antibodies were tested for their ability to bind to several forms of recombinant MerTK extracellular domain, including human, cynomolgus, and mouse orthologs as described above. Estimates of affinity were generated by injecting each analyte over the entire antibody array using the single channel flow cell. MerTK analytes were diluted to 33.3, 100, and 300 nM in running buffer, and injected in serial from lowest to highest concentration without regeneration. Two buffer blanks were run between each series (one species per series). Data were processed and analyzed using NextGenKIT high-throughput kinetics analysis software (Carterra).\nThe equilibrium dissociation constants (KD) were then calculated from the fitted association and dissociation rate constants (k-on and k-off) for anti-MerTK antibodies of the present disclosure. Binding kinetic analysis was also performed on anti-MerTK antibodies H1 (BioLegend, Clone ID: 590H11G1E3), H2 (R&D systems, Clone ID: 125518), M6 (WO2016/106221), and CDX AB2000-A7 hIgG1 (WO2019/084307).", "units": {"Kd": "nM"}, "values": [
      {"binder": "B1", "Kd": 44},
      {"binder": "B2", "Kd": 24},
      {"binder": "B3", "Kd": 4.5},
      {"binder": "B4", "Kd": 1.6},
      {"binder": "B5", "Kd": 71},
      {"binder": "B6", "Kd": 39},
      {"binder": "B7", "Kd": 30},
      {"binder": "B8", "Kd": 1.9},
      {"binder": "B9", "Kd": 3},
      {"binder": "B10", "Kd": 17},
      {"binder": "B11", "binding result": "no binding (tested: 300 nM)"}
    ]},
    {"molecular_target": "T2, human MerTK endogenously expressed on cells (SK-MEL-5 cells; human macrophages) (human, UniProt Q12866 21-999)", "T2 construct": "also called MerTK on SK-MEL-5", "T2 sequence": "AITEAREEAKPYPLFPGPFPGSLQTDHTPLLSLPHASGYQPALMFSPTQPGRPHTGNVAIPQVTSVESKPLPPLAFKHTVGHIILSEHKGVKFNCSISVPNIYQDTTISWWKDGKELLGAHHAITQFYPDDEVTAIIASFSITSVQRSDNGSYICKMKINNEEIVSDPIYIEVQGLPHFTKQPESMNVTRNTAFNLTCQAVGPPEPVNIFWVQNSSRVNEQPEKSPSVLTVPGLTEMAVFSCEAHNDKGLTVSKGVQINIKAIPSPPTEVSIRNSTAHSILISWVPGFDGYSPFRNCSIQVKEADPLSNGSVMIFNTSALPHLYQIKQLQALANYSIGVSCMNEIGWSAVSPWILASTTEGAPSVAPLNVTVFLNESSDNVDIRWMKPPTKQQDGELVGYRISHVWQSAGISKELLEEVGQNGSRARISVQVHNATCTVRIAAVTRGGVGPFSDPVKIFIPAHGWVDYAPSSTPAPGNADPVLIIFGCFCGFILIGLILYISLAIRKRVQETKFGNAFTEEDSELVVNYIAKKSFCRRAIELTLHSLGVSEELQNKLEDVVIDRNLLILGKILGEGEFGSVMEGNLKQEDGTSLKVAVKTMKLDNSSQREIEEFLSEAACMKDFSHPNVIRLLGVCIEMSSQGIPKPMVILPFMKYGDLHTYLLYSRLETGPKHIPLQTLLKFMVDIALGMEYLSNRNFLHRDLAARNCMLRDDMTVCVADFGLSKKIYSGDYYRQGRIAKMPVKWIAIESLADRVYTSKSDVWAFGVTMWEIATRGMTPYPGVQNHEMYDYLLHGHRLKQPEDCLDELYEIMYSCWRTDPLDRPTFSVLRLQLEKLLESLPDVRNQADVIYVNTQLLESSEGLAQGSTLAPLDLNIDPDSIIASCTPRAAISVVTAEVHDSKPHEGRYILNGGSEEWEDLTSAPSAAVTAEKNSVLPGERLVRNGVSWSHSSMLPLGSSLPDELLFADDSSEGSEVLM", "experiment": "flow cytometry on SK-MEL-5 cells, Prism fit", "method": "To determine whether recombinant anti-human MerTK antibodies of the present disclosure bind to human MerTK endogenously expressed on SK-MEL-5 cells and to CHO cells overexpressing mouse MerTK (CHO-muMerTK OE cells), the following experiments were performed. SK-MEL-5 cells and CHO-muMerTK OE cells were plated at 40,000 cells/well. Anti-MerTK antibodies were titrated to a final concentration range of between 66.6 nM to 4 pM and then added to the cells. After 30 min on ice, cells were washed and then stained with APC-conjugated mouse anti-human Kappa antibody (Southern Biotech Cat #9230-11, Birmingham, Ala.) and a viability die (Life Technologies) in the presence of Fc block solution on ice for 30 minutes, and then washed twice with cold FACS buffer (2% FBS in PBS). Cells were fixed with 4% paraformaldehyde in PBS. Stained cells were acquired on a BD FACS Canto II cytometer and the mean fluorescence intensity (MFI) was calculated with FlowJo software and K value was calculated with Prism software. […] A lower Kd value reflects higher binding of antibody to cells.", "units": {"Kd": "nM"}, "values": [
      {"binder": "B1", "Kd": 0.59},
      {"binder": "B2", "Kd": 0.47},
      {"binder": "B3", "Kd": 0.52},
      {"binder": "B4", "Kd": 1.66},
      {"binder": "B5", "Kd": 2.55},
      {"binder": "B6", "Kd": 0.68},
      {"binder": "B7", "Kd": 1.38},
      {"binder": "B8", "Kd": 0.076},
      {"binder": "B9", "Kd": 0.19},
      {"binder": "B10", "Kd": 0.005},
      {"binder": "B11", "Kd": 0.009}
    ]}
  ]
}
